{"source": "paper PMC10769223", "molecular_target": "Galectin-3-binding protein in conditioned media of HEK293T cells expressing rSulf-2 (human (endogenous in HEK293T)) (UniProt Q08380)", "sequence (Q08380 19-585)": "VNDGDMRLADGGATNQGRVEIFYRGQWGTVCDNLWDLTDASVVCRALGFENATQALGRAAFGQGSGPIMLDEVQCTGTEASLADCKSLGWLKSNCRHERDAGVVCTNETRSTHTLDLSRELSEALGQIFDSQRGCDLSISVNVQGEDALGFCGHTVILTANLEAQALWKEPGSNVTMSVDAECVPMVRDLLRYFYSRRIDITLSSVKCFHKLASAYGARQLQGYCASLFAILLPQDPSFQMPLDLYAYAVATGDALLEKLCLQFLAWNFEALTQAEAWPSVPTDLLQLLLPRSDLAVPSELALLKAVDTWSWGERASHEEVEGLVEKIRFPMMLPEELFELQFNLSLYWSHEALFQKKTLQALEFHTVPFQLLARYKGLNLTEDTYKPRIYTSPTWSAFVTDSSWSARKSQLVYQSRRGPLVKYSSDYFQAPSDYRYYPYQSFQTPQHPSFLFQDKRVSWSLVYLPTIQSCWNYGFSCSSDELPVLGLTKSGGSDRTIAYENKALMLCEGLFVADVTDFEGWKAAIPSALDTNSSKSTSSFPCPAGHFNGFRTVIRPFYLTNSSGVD", "experiment": "affinity purification with mass spectrometry"}
{"substance": "rSulf-2 (HEK293T lentiviral) treated with chondroitinase ABC (enzyme)", "values": [{"measurement": "fold change of the Sulf-2/LG3BP peak-area ratio against the untreated control", "result": 3, "unit": "fold"}]}
